Target: PTH receptor (PTHR1) (human) (UniProt Q03431)
Experiment: cell-based or functional assay

Chain of UniProt Q03431 (Q03431 27-593): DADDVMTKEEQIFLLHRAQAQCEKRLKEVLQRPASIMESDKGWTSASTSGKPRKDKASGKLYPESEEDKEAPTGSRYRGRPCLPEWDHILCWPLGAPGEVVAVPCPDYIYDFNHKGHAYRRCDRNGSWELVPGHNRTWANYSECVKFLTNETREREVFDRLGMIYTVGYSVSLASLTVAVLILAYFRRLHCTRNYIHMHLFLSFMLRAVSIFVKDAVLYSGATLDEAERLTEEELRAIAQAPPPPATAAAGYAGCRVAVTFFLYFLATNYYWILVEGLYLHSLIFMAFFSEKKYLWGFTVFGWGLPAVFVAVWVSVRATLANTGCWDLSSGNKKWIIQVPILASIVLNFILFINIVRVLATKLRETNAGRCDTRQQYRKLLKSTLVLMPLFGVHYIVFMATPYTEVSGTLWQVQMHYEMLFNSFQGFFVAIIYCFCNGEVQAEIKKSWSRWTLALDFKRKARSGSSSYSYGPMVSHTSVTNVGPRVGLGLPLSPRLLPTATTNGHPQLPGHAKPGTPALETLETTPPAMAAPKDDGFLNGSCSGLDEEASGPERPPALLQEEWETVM

## PTH (ligand)
  EC50 (cAMP, PTH1 cellular assay): 1.4 nM
  Maximal response: 105%
